Results: CN109232738A (GENSCRIPT NANJING CO LTD, dated 2019)

Tests used:
[1] = biological target: T1, 人OX40 expressed on cells (表达OX40的CHO细胞; OX40过表达的功能细胞系) (human, UniProt P43489 29-277); assay: cell-based or functional assay
T1 sequence (looked up): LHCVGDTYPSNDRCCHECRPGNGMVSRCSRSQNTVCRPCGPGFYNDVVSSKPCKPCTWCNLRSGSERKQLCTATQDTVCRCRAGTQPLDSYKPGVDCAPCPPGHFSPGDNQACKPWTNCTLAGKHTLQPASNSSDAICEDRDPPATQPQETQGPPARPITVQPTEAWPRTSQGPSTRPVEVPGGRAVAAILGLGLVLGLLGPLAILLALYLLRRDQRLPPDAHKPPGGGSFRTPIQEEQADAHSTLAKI

[2] = biological target: T1, 人OX40 expressed on cells (表达OX40的CHO细胞; …); assay: flow cytometry on OX40-expressing CHO cells, 5 μg/ml antibody

Binder | inhibition of IL-8 secretion by OX40 over-expressing functional cell line, IC50 [1] [nM] | 结合信号值 relative to control sample (fold) [2] [fold] | IL-8 secretion by OX40 over-expressing functional cell line (activation), EC50 [1] [nM] | inhibition of IL-8 secretion by OX40 over-expressing functional cell line, given as EC50 [1] [nM]
83C2H3B6 (antibody, V domains shown) VH: QVQLKQSGPGLVQPSQSLSITCTVSGFSLTSYGVHWVRQSPGKGLEWLGVIWSGGSTDYNAAYISRLSISKDNSKSQVFFKMNSLQADDTATYYCANYDYDVPYWGQGTLVTVSA VL: DIQMTQSPASQSASLGESVTITCLASQTIGTWLAWYQQKPGKSPQLLIYAATSLADGVPSRFSGSGSGTKFSFKISSLQAEDFVSYYCQQLYSTPFTFGSGTKLEIK | 68 | 200 |  | 
OX40L (ligand, UniProt P23510 51-183, looked up) QVSHRYPRIQSIKVQFTEYKKEKGFILTSQKEDEIMKVQNNSVIINCDGFYLISLKGYFSQEVNISLHYQKDEEPLFQLKKVRSVNSLMVASLTYKDKVYLNVTTDNTSLDDFHVNGGELILIHQNPGEFCVL |  |  | 2.18 | 
51E2G12D6 (antibody, V domains shown) VH: QVTLKESGPGILQPSQTLSLTCSFSGFSLDTSGMGVTWIRQPSGKGLEWLAHIYWDDDKHYNPSLKSRLTISKDTSSTQVLLKITSVVTADTATYYCARRALGAMDYWGQGTSVTVSS VL: DIQMTQTTSSLSASLGDRVTISCRASQDISHYLNWYQQKPDGTVKLLIYYTSTLHSGVPSRFSGSGSGTDYSLTISNLEQEDIATYFCQQGKTLPPTFGAGTELELK | 1.45 | 200 |  | 
17B12G2C3 (antibody, V domains shown) VH: EVQLQQSGPELVKPGASVKISCKASGYTFTDYYMNWVKQSHGKSLEWIGDINPNNGGTNYNQKFKGKATLTVDKSSSTTYMELRSLTSEDSAVYYCARSGGWLLQDYWGQGTTLTVSS VL: DIQMTQTTSSLSASLGDRVTITCRASLDISNYLNWYQQKPDGTVKFLIYYTSRLHSGVPSRFSGSGSGTDYSLTISNLEQEDIATYFCQQGNTLPYTFGGGTKLEIK | 8.23 | 200 |  | 
99A2A8D4E8 (antibody, V domains shown) VH: QIQLVQSGPELKKPGETVKISCKASGYTFTDYSMHWVKQAPGKGLKWMGWISTETGEPTYADDFKGRFAFSLETSASTAYLQIKNLKNEDTASYFCARVRPWYLAVWGAGTTVTVSS VL: DIQMTQTTSSLSASLGDRVTISCRASQDISNYLNWYQQKPDGTVKLLIYYTSRLYSGVPSRFSGSGSGADYSLTVSNLEQEDIATYFCQQANTLPLTFGAGTKLELK |  | 200 | 0.58 | 
68G8C4B12 (antibody, V domains shown) VH: QVQLKESGPGLVAPSQSLSITCTVSGFSLTNYGVHWVRQPPGKGLEWLGVIWDDGNTNYNSALMSRLSINKDNSKSQVFVTMNSLQIDDTAMYYCALFDGYYGWFAYWGQGTLVTVSS VL: DIQMTQTTSSLSASLGDRVTISCRASQDISFYLNWYQQKPDGTVKLLIYYTSRLHSGVPSRFSGSGSGTDYSLTISNLEQEDFATYFCQQGHTLPWTFGGGSKLEIK |  | 200 |  | 2.36
9G4C8B11 (antibody, V domains shown) VH: DVQLQESGPGLVKPSQSLSLTCSVTGYSITSGYYWNWIRQFPGNKLEWMGYISYDGSNNYNPSLKNRISITRDTSKNQFFLKLNSVTTEDTATYYCARDRAYYSNYVGWYFDVWGTGTTVTVSS VL: DIVLTQSPASLAVSLGQRATISCRASESVDNYGNSFMHWYQQTPGQPPKLLIYRASNLESGIPAKFSGSGSRTDFTLTINPVEADDVATYYCQQSNEDPLTFGAGTKLELK |  | 200 | 6.5 | 
